Ends that are not written are not given here.
Experiments:
RXFP4 = conditions: R23^BA ref 34; R23^BE ref 35; cited from earlier work
Text: Despite these advances, difficulties in obtaining sufficient quantities of native INSL5 hampered our efforts in further exploring the biology of the peptide and its cognate receptor. […] In addition to peptidic analogs, small molecule modulators have been reported in recent years. […] The N-terminal residues (R5^B to L9^B) adopted a loop that is clasped by a short N-terminal α-helix of the A chain through one disulfide bond (C8^A‒C7^B). W24^B contributed massive polar and nonpolar interactions to stabilize the peptide binding via both side chain indole and the carboxylic acid group. The former made a hydrogen bond with T121^3.32 (superscripts denote Ballesteros–Weinstein numbering[32]), as well as cation- ...

[1] = target: T1, human RXFP4 stably expressed on CHO-K1 cells (hRXFP4-CHO) (human, UniProt Q8TDU9 1-374); experiment: competitive binding of a europium-labelled ligand on cells (time-resolved fluorescence); CHO-K1 cells stably transfected with RXFP4 on poly-L-lysine 96-well plates; 5 nM Eu-R3/I5 with increasing amounts of ligand; one-site binding curve; conditions: one partner purified
T1 construct: relaxin family peptide receptor 4 (RXFP4), human, on stably transfected CHO-K1 cells; source: CHO-K1 cells, stably transfected, on cells
T1 sequence (Q8TDU9 whole entry): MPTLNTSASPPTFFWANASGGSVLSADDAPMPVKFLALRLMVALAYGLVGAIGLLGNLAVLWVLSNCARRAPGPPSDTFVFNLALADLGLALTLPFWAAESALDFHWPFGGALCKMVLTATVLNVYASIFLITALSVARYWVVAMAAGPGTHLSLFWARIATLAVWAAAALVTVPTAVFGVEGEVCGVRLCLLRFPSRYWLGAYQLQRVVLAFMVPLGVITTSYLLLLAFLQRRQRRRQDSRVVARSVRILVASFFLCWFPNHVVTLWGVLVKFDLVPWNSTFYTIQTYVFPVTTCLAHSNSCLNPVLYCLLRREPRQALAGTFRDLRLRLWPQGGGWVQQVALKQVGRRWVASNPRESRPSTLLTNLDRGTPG

[2] = target: human RXFP4 H299A mutant (human) (UniProt Q8TDU9)
human RXFP4 H299A mutant (human), sequence (Q8TDU9 whole entry H299A): as the sequence (Q8TDU9 whole entry) above, with H299A counted along it

[3] = target: T1, human RXFP4 stably expressed on CHO-K1 …; experiment: cell-based or functional assay

Row | pKi [1] | INSL5-induced cAMP response in HEK293T cells transfected with the mutant receptor: reduction of Emax against wild type [2] [%] | inhibition of forskolin-induced cAMP responses in CHO-K1 cells stably transfected with RXFP4 (pEC50) [3] | Molecule | potency of R23^B mutant vs INSL5 (RXFP4)
1 |  |  |  | R23^BA: INSL5 with R23^B replaced by alanine (Insulin-like peptide INSL5 B … KESVRLCGLEYIRTVIYICASSAW; Insulin-like peptide INSL5 A … QDLQTLCCTDGCSMTDLSALC; disulfide (positions not given here); ends not checked; also: three disulfide bonds, places not given here; UniProt Q9Y5Q6 23-46; Q9Y5Q6 115-135, looked up, variant R23A) | reduced potencies
2 | 8.19 | 70 | 8.8 | recombinant two-chain human insulin-like peptide 5 (INSL5) (ligand) chain 1: QDLQTLCCTDGCSMTDLSALC chain 2: KESVRLCGLEYIRTVIYICASSRW | 

— article PMC9886975, “Ligand recognition mechanism of the human relaxin family peptide receptor 4 (RXFP4)” (Nature Communications, 2023)
